For one experiment, the target named is HLA-B*15:42. Nature of the experiment: IEDB peptide-MHC binding, purified MHC/competitive/fluorescence; filed as Kd, often an IC50 or EC50 that approximates it; ≥ and ≤ were set here for values at or beyond the usual limits of such assays.
The target in the next experiment is HLA-B*45:06. The description is as above.
The next experiment deals with HLA-C*14:02. The description is as above.
A further experiment deals with HLA-C*04:01. The description is as above.
A further experiment concerns the target HLA-B*83:01. The description is as above.
Another experiment deals with HLA-A*68:23. The experiment is described as above. The settings on record: source organism: Mycobacterium tuberculosis variant bovis BCG str. Pasteur 1173P2.
Experiment [1] has as its target HLA-C*06:02. The description is as above. The settings on record: source organism: Mycobacterium tuberculosis variant bovis BCG str. Pasteur 1173P2.
Experiment [2] deals with HLA-A*02:01. Nature of the experiment: IEDB peptide-MHC binding, purified MHC/direct/fluorescence; filed as Kd, often an IC50 or EC50 that approximates it; ≥ and ≤ were set here for values at or beyond the usual limits of such assays. The settings on record: source organism: Bacillus anthracis.
For a further experiment, the target named is HLA-A*26:03. The description is as above. The settings on record: source organism: Bacillus cereus H3081.97.
For the next experiment, the target named is HLA-B*48:01. The experiment is described as above. The settings on record: source organism: Bacillus anthracis.
The target of experiment [3] is HLA-B*15:01. The description is as above. The settings on record: source organism: Bacillus anthracis.
The target of another experiment is HLA-B*07:02. Described as above. The settings on record: source organism: Bacillus anthracis.
The target in a further experiment is HLA-B*58:01. The description is as above. The settings on record: source organism: Bacillus anthracis.
In the next experiment the target is HLA-A*26:02. The experiment is described as above. The settings on record: source organism: Bacillus cereus H3081.97.
The target of experiment [4] is HLA-A*11:01. Described as above. The settings on record: source organism: Bacillus anthracis.
For another experiment, the target named is HLA-B*57:01. Described as above. The settings on record: source organism: Bacillus anthracis.
The next experiment concerns the target HLA-A*69:01. The description is as above. The settings on record: source organism: Bacillus anthracis.
Experiment [5] concerns the target HLA-A*01:01. The experiment is described as above. The settings on record: source organism: Bacillus anthracis.
For a further experiment, the target named is HLA-A*68:02. The description is as above. The settings on record: source organism: Bacillus anthracis.
A further experiment has as its target HLA-B*18:01. The experiment is described as above. The settings on record: source organism: Bacillus anthracis.
The next experiment addresses HLA-B*27:05. Described as above. The settings on record: source organism: Bacillus anthracis.
A further experiment addresses HLA-B*39:01. The experiment is described as above. The settings on record: source organism: Bacillus cereus H3081.97.
The target of another experiment is HLA-B*73:01. The description is as above. The settings on record: source organism: Bacillus anthracis.
The target of the next experiment is HLA-A*31:01. Described as above. The settings on record: source organism: Bacillus anthracis.
The target of experiment [6] is HLA-A*03:01. Described as above. The settings on record: source organism: Bacillus anthracis.
The target in a further experiment is HLA-B*15:17. The description is as above. The settings on record: source organism: Bacillus anthracis.
A further experiment has as its target HLA-B*40:02. Nature of the experiment: IEDB peptide-MHC binding, cellular MHC/competitive/fluorescence; ≥ and ≤ were set here for values at or beyond the usual limits of such assays. The settings on record: source organism: Homo sapiens.
In experiment [7] the target is HLA-A*02:01. Nature of the experiment: IEDB peptide-MHC binding, purified MHC/competitive/fluorescence; ≥ and ≤ were set here for values at or beyond the usual limits of such assays. The settings on record: source organism: Vaccinia virus WR.
Experiment [8] addresses HLA-B*15:01. The experiment is described as above. The settings on record: source organism: Vaccinia virus WR.
The target in experiment [9] is HLA-A*24:02. The experiment is described as above. The settings on record: source organism: Vaccinia virus WR.
The target of experiment [10] is HLA-A*11:01. The experiment is described as above. The settings on record: source organism: Vaccinia virus WR.
The target in experiment [11] is HLA-A*01:01. The description is as above. The settings on record: source organism: Vaccinia virus WR.
For experiment [12], the target named is HLA-A*03:01. Described as above. The settings on record: source organism: Vaccinia virus WR.
Another experiment addresses HLA-C*12:03. Nature of the experiment: IEDB peptide-MHC binding, purified MHC/direct/fluorescence; filed as Kd, often an IC50 or EC50 that approximates it; ≥ and ≤ were set here for values at or beyond the usual limits of such assays. The settings on record: source organism: Giardia lamblia ATCC 50803.
Another experiment deals with HLA-C*08:02. The description is as above. The settings on record: source organism: Giardia lamblia ATCC 50803.
The target of another experiment is HLA-C*15:02. Described as above. The settings on record: source organism: Giardia lamblia ATCC 50803.
The next experiment concerns the target HLA-C*05:01. The description is as above. The settings on record: source organism: Giardia lamblia ATCC 50803.
In the next experiment the target is HLA-C*03:03. The description is as above. The settings on record: source organism: Giardia lamblia ATCC 50803.
The target of experiment [13] is HLA-C*06:02. Described as above. The settings on record: source organism: Giardia lamblia ATCC 50803.
For another experiment, the target named is HLA-B*46:01. Nature of the experiment: IEDB peptide-MHC binding, purified MHC/competitive/fluorescence; filed as Kd, often an IC50 or EC50 that approximates it; ≥ and ≤ were set here for values at or beyond the usual limits of such assays. The settings on record: source organism: Giardia lamblia ATCC 50803.
The target of a further experiment is HLA-B*27:20. The experiment is described as above. The settings on record: source organism: Giardia lamblia ATCC 50803.
The target in experiment [14] is HLA-A*24:02. Put plainly: IEDB peptide-MHC binding, cellular MHC/competitive/fluorescence; ≥ and ≤ were set here for values at or beyond the usual limits of such assays. The settings on record: source organism: Human herpesvirus 5 strain AD169.
Another experiment deals with HLA-A*03:19. Put plainly: IEDB peptide-MHC binding, purified MHC/competitive/fluorescence; filed as Kd, often an IC50 or EC50 that approximates it; ≥ and ≤ were set here for values at or beyond the usual limits of such assays. The settings on record: source organism: human gammaherpesvirus 4.
Setting [15] is: source organism: Mycobacterium tuberculosis variant bovis BCG str. Pasteur 1173P2.
Setting [16] is: source organism: Giardia lamblia ATCC 50803.
The mark [17] stands for this setting: source organism: human gammaherpesvirus 4.

A word on the Kd: it is the free concentration of one partner at which half of the binding sites on the other are occupied at equilibrium, for simple one-to-one binding. Low values mean tighter binding, high ones weaker binding. As to MAAVRTTAL, the Kd with HLA-B*15:42 (setting [15]) is at least 5 µM; with HLA-B*45:06 (setting [15]), at least 5 µM; with HLA-C*14:02 (setting [15]), 0.0144 µM; in the experiment with HLA-C*04:01 (setting [15]) it was at least 20 µM; with HLA-B*83:01 (setting [15]) it was 0.508 µM; with HLA-A*68:23 it was 0.0055 µM. The Kd with HLA-C*06:02 [1] was found to be 0.104 µM.
Consider PRFGSCYFL, for which the Kd with HLA-A*02:01 [2] is at least 20 µM; with HLA-A*26:03, at least 20 µM; with HLA-B*48:01 it was at least 20 µM; in the experiment with HLA-B*15:01 [3], at least 20 µM; in the experiment with HLA-B*07:02, 2.72 µM; in the experiment with HLA-B*58:01, at least 20 µM. In addition, the equilibrium dissociation constant (Kd) with HLA-A*26:02, with HLA-A*11:01 [4], with HLA-B*57:01, in the experiment with HLA-A*69:01, with HLA-A*01:01 [5] and with HLA-A*68:02 was at least 20 µM in each case. Further, the Kd with HLA-B*18:01, with HLA-B*27:05, with HLA-B*39:01, with HLA-B*73:01, with HLA-A*31:01 and with HLA-A*03:01 [6] was at least 20 µM each time. For the same sequence, in the experiment with HLA-B*15:17, the Kd was at least 20 µM.
In general, IC50 refers to the concentration at which inhibition is half-maximal. As for SSYGNIRAV, in the experiment with HLA-B*40:02, the 50% inhibitory concentration (IC50) came out at 1.8 µM.
As for ITCKAFGLY, the concentration for half-maximal inhibition (IC50) was at least 173 µM in the experiment with HLA-A*02:01 [7]; 14 µM with HLA-B*15:01 [8]; at least 85.1 µM with HLA-A*24:02 [9]; 2.82 µM in the experiment with HLA-A*11:01 [10]; 1.55 µM with HLA-A*01:01 [11]; 15.4 µM with HLA-A*03:01 [12].
For YMRERFEPM, the Kd is 0.038 µM with HLA-C*12:03; at least 20 µM with HLA-C*08:02; 0.07 µM with HLA-C*15:02; at least 20 µM with HLA-C*05:01; 0.452 µM in the experiment with HLA-C*03:03; 0.022 µM with HLA-C*06:02 [13]. Also, the dissociation constant (Kd) was at least 5 µM in the experiment with HLA-B*15:42 (setting [16]); at least 5 µM with HLA-B*45:06 (setting [16]); 0.0218 µM in the experiment with HLA-B*46:01; 0.0003 µM with HLA-C*14:02 (setting [16]); at least 5 µM in the experiment with HLA-C*04:01 (setting [16]); at least 5 µM in the experiment with HLA-B*83:01 (setting [16]). In addition, the Kd with HLA-B*27:20 turned out to be 0.0005 µM.
In turn, VYALPLKML showed a half-maximal inhibitory concentration (IC50) with HLA-A*24:02 [14] of 7.5 µM.
Take WPTPKTHPV: the equilibrium dissociation constant (Kd) is at least 5 µM with HLA-B*15:42 (setting [17]); at least 5 µM with HLA-B*45:06 (setting [17]); 0.143 µM in the experiment with HLA-C*14:02 (setting [17]); 1.08 µM with HLA-A*03:19; 3.47 µM with HLA-B*83:01 (setting [17]).

Source of the values: the Immune Epitope Database (IEDB).
